Experimental data reported in paper PMC5103296, “New structural insight of C-terminal region of Syntenin-1, enhancing the molecular dimerization and inhibitory function related on Syndecan-4 signaling” (Scientific Reports, 2016).
Read-outs that look alike come from different tables or passages of the source. Values belong to the molecule of their own block, whether it stands above or below them.

Experiments:
syndecan-4-YFP = syndecan-4-YFP (UniProt P34901); assay: FRET or BRET; FRET after acceptor (YFP) photobleaching in REFs expressing syndecan-4-YFP and PKM-CFP
Chain of syndecan-4-YFP (P34901 24-202): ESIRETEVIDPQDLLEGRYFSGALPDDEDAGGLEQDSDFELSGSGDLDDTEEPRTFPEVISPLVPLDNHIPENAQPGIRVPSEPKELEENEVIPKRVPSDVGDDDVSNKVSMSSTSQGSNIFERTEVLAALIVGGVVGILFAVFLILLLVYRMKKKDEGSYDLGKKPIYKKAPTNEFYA

[1] = molecular target: T1, syntenin-1 PDZ2 construct containing the C-terminal tail (PDZ2C); assay: SEC; HiLoad 16/600 Superdex 75; 20 mM sodium phosphate, 100 mM NaCl, 0.01% NaN3, 5 mM dithiothreitol, pH 7.0; mass from calibration with standards; conditions: both partners purified
T1 chain: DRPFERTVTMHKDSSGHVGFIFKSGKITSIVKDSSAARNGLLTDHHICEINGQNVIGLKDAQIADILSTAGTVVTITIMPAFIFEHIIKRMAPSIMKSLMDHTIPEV

[2] = molecular target: the molecule itself; assay: crystal structure; syntenin-1 mixed with 4C2 at a 1:4 molar ratio; micro batch under oil; 0.2 M lithium sulfate monohydrate, 0.1 M Tris hydrochloride pH 8.5, 30% PEG 4000; 2.8 Å
[3] = molecular target: the molecule itself; assay: SEC; HiLoad 16/600 Superdex 75; 20 mM sodium phosphate, 100 mM NaCl, 0.01% NaN3, 5 mM dithiothreitol, pH 7.0; mass from calibration with standards
[4] = molecular target: the molecule itself; assay: as above; remark: listed apart in the source

B2: syndecan-4 cytoplasmic domain peptide corresponding to the C2 region (4C2) (peptide)
peptide: APTNEFYA
notes: C2 region of the cytoplasmic domain of rat syndecan-4, residues 195-202; Seen as a dimer in the crystal of the syntenin-1/4C2 complex; also called syndecan peptide; source: synthetic peptide (Anygen Inc.)
binding result [2]: binds

B3: His-tagged syntenin-1 (His-STN) (domain or fragment)
chain: AEIKQGIREVILCKDQDGKIGLRLKSVDNGIFVQLVQANSPASLVGLRFGDQVLQINGENCAGWSSDKAHKVLKQAFGEKITMTIRDRPFERTVTMHKDSSGHVGFIFKSGKITSIVKDSSAARNGLLTDHHICEINGQNVIGLKDAQIADILSTAGTVVTITIMPAFIFEHIIKRMAPSIMKSLMDHTIPEV
notes: syntenin-1 (STN), recombinant construct with PDZ1, PDZ2 and the C-terminal region; printed M.W 21.8 kDa; The residue numbers (H210, V211) fit the rat protein (surmised); also called STN-1; source: recombinant, purified (Ni-NTA)
stoichiometry N [3]: 2
stoichiometry N [4]: 2

Other lines, results leading:

FRET efficiency (syndecan-4-YFP): 6.39%
Molecule: PKC catalytic domain (PKM)-CFP (domain or fragment)

stoichiometry N [1]: 2
B1: syntenin-1 PDZ2 construct containing the C-terminal tail (PDZ2C) (domain or fragment)
chain: T1 chain
modifications: limits not given; same start as PDZ2 through the native C-terminus, consistent with the printed 11.7 kDa; homodimer by gel filtration / limits not given; same start as PDZ2 through the native …
